Legend:
[1] = target: cell surface MHC class I K^b molecules presenting the OVA257-264 SIINFEKL peptide (murine); assay: flow cytometry, K^b-SIINFEKL positive population of DC2.4 cells infected with Lm expressing PSA-Survivin-SIINFEKL
[2] = target: cell surface MHC class I K^b molecules presenting the OVA257-264 SIINFEKL peptide (murine); assay: flow cytometry, K^b-SIINFEKL positive population of DC2.4 cells infected with Lm expressing PSA-PSMA-SIINFEKL
[3] = target: H-2K^b on DC2.4 cells not presenting SIINFEKL (cells infected with a non-SIINFEKL-expressing Lm strain; K^b-SIINFEKL negative populations) (murine); assay: flow cytometry, K^b-SIINFEKL negative populations of infected DC2.4 cells
[4] = target: H-2K^b on DC2.4 cells not presenting SIINFEKL (cells infected with a non-SIINFEKL-expressing Lm strain; K^b-SIINFEKL negative populations) (murine); assay: flow cytometry, DC2.4 cells infected with a non-SIINFEKL-expressing Lm strain at MOI 20
[5] = target: cell surface MHC class I K^b molecules presenting the OVA257-264 SIINFEKL peptide (murine); assay: flow cytometry, DC2.4 cells infected with ADXS31-2142 at MOI 20, stained five hours post-infection
[6] = target: cell surface MHC class I K^b molecules presenting the OVA257-264 SIINFEKL peptide (murine); assay: flow cytometry, K^b-SIINFEKL positive population of DC2.4 cells infected with the SIINFEKL minigene Lm (positive control)

“Alexa Fluor 647 conjugated 25D-1.16 antibody” gave a Mean fluorescence intensity (MFI) [1] of 4780 MFI, a Mean fluorescence intensity (MFI) [2] of 2040 MFI and a Mean fluorescence intensity (MFI) [3] of 300 MFI. For the same substance, the percentage of Alexa647+ DC2.4 cells [4] was 0.37%, the percentage of Alexa647+ DC2.4 cells [5] was 14.6% and the Mean fluorescence intensity (MFI) [6] was 14900 MFI.

Source: patent US20180305702A1
